Our source for the Kd values is patent publication US20140187758A1.

The target of test [1] is European Corn Borer-aminopeptidase 1 (Ostrinia nubilalis).
Test [2] concerns the target European Corn Borer-cadherin (Ostrinia nubilalis).

As to “Cry1Ac core toxin (trypsin-cleaved Cry1Ac holotoxin) (from UniProt P05068 29-623) (ligand)”, the Kd (commonly a measure of binding affinity in units of concentration) in test [1] came to 107 nM; in test [2], 48 nM.
